Values quoted from earlier work, collected in PMC8035261.

How the values were obtained:
SV2 = SV2 (UniProt Q9Z2I6)
FGFR3 (Homo sapiens) = FGFR3 (Homo sapiens) (UniProt P22607)
Chain of UniProt P22607 (P22607 23-806): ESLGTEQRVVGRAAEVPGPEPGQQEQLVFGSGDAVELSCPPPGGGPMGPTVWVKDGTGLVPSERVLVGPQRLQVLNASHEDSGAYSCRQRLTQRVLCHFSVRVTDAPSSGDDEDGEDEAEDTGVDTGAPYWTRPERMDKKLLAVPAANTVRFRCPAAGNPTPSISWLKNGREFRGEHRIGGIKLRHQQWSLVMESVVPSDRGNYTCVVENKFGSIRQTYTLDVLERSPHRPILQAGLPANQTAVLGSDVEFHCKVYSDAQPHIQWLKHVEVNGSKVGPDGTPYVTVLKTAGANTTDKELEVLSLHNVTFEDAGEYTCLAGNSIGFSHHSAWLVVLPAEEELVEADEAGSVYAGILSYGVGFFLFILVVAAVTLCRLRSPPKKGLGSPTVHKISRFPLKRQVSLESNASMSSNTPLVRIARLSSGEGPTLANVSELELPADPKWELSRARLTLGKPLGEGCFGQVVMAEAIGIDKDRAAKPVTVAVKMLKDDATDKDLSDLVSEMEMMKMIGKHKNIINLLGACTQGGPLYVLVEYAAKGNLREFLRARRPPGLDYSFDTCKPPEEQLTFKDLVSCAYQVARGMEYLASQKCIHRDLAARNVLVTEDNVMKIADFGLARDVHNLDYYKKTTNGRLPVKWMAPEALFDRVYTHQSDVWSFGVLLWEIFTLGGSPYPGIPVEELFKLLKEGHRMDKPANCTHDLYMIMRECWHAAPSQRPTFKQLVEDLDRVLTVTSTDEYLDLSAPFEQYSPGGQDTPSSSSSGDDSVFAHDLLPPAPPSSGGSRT

Chain of UniProt Q9Z2I6 (Q9Z2I6 whole entry): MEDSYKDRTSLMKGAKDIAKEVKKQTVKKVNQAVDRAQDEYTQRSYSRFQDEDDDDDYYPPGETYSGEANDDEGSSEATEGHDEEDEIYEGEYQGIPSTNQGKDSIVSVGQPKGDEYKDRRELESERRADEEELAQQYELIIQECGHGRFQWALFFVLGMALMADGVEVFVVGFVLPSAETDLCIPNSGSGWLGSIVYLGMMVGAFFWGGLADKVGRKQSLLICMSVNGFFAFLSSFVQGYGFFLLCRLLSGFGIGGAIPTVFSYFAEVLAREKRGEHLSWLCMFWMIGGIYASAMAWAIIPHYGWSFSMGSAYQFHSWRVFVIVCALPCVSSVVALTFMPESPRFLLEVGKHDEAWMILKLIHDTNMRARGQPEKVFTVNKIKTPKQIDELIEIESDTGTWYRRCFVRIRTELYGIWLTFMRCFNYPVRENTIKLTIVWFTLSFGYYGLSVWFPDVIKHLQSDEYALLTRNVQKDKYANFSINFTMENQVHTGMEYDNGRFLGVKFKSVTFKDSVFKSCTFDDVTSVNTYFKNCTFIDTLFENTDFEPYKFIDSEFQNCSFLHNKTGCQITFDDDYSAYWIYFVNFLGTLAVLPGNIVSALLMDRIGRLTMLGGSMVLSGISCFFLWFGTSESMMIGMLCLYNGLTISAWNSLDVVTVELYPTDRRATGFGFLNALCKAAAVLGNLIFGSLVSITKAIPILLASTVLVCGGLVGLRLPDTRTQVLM

## BoNT/A (from UniProt P0DPI1)
SV2
  Kd: 0.1 µM
FGFR3 (Homo sapiens)
  Kd: 0.015 µM
